Measurements taken from the supplement of paper PMC10567573.
± gives the standard deviation.

Assay: protein stability index of a GFP-peptide fusion (GPS, HEK-293T) (PSI 1-6); higher = more stable
Details: c terminus: a fixed tail appended
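Further: 24-mer peptide tiles fused after GFP, lentivirally expressed, FACS-sorted into six equal bins by GFP/DsRed ratio, decoded by Illumina sequencing, PSI is the read-weighted mean bin number.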

Sequence	protein stability index (treatment: DMSO)	protein stability index (treatment: MLN4924 1 uM, 8 h)
SNMKSRYTTEFHELEKIGSGEFGS [WEE1]	3.9 ± 0.31	4.04 ± 0.19
TITAPPSRVLQNGGDKLETMPLYL [SCD]	3.5 ± 0.41	3.43 ± 0.29
GLAMALEPNTTFLRKSLKAALKHL [FANCE]	2.48 ± 0.33	2.54 ± 0.62
PANLYVRELREVRRVPPRFSIPPT [PTPRD]	2.95 ± 0.2	3.05 ± 0.41
TLIMLLSLAAFSVISVVSYLILAL [RTN3]	2.58 ± 0.36	2.12 ± 0.11
VYLLGNPVVWWLNLLSIALYLLSG [POMT2]	3.31 ± 0.95	2.96 ± 0.56
HVTVVILFFVPCIFLYARPNSTFP [OR4A15]	2.83 ± 0.9	2.77 ± 0.51
RSQQQEPLLCPSYQSYFKTIEELQ [KRT33B]	3.21 ± 0.37	3.43 ± 0.18
RPSEAQSVILRRYFLELTQSFIIP [DENND6A]	2.91 ± 0.44	2.67 ± 0.45
HVLEGLFRTDPEAKVKLVFVEDQA [ZSWIM9]	2.51 ± 0.19	2.74 ± 0.24
EEAEAGEEAVPEEEGPTVVLNPHP [CHGA]	5.59 ± 0.14	5.44 ± 0.28
ILGRGLQEYQLPYQRVLPLPIFTP [TCAP]	2.25 ± 0.21	2.37 ± 0.12
ALATVSLLSLVTFTFLSAKCLQGN [PCDHGC5]	3.2 ± 0.29	3.16 ± 0.23
AREGSSEPWLPLTDGRSPRRSRDP [PLEKHN1]	5.17 ± 0.43	5.1 ± 0.098
FPPFFDDNPFGIYQKILAGKIDFP [PRKX]	2.28 ± 0.067	2.27 ± 0.62
AGRAAAPELSYRVCVGSDVTSIHK [MYORG]	3.32 ± 0.17	3.35 ± 0.24
CGDYFPDGITNGASWYSLSKGMQD [CPN1]	2.52 ± 0.12	2.74 ± 0.14
IVRLRTIGELLAPAAPFDKKCGRE [WSB1]	2.64 ± 0.2	2.85 ± 0.34
MTTTFLQTSSSTFGGGSTRGGSLL [KRT15]	2.8 ± 0.35	2.97 ± 0.46
GSKKKFDKCMVCGGDGSGCSKQSG [ADAMTS4]	4.18 ± 0.4	4.02 ± 0.34
QRVLFSGSSDHSVIMWDIGGRKGT [WDFY2]	2.8 ± 0.43	2.94 ± 0.14
FGSFLLLLFSLTQFSVVSVVAYLA [RTN1]	3.14 ± 0.62	3.35 ± 0.6
TLAALLLNRSESDIRYLLGYVSQQ [FEM1B]	2.39 ± 0.42	2.52 ± 0.61

Sequence	protein stability index (treatment: DMSO)	protein stability index (treatment: MLN4924 1 uM, 8 h)
KKKKTKKIKEKYIDQEELNKTKPI [HSP90AB1]	4.28 ± 0.26	4.53 ± 0.31
ENSVTHHEVKCQGKPLAGIYRKRE [KMT5A]	4.34 ± 0.13	4.42 ± 0.34
CMVGLLLIALLTWGYIRYSGQYRE [ATL3]	2.95 ± 0.25	3.04 ± 0.36
ARNGNAEEVRQLLETMARNEVIAD [OSBPL1A]	4.11 ± 0.061	4.07 ± 0.32
YGHCTAGGEGVEVELLHNTSYTRQ [SCNN1D]	3.71 ± 0.22	3.8 ± 0.25
CEYNFVSPSKSFWTRITCAEEGWS [CFHR2]	2.31 ± 0.35	2.05 ± 0.089
IGVILFSSAVYFAEADEPTTHFQS [KCNA4]	2.36 ± 0.58	2.69 ± 1
CWLPLLAGLLPPVPAQKFSALTFL [SMOC2]	3.54 ± 0.15	2.82 ± 0.53
TAGQERYRAITSAYYRGAVGALLV [RAB11A]	2.22 ± 0.24	2.19 ± 0.24
TNTRSDLDVFGRGDNISDVSKFLE [LUC7L3]	4.67 ± 0.16	4.76 ± 0.19
YVQTVDFMRTDNTCVNLLLEASNY [KLHL13]	2.6 ± 0.71	2.6 ± 0.66
ERENVAVAKLQESQPGNAVIDKET [SDE2]	5.37 ± 0.25	5.06 ± 0.21
SSSKGTIRLCDMRASALCDRHTKF [PPP2R2B]	3.01 ± 0.048	3.14 ± 0.078
SNSQPTNESHSIKAILKNISVLAF [SLC29A1]	2.45 ± 0.46	2.43 ± 0.29
IHLSAPCIYSEVMEALKLQPGLSF [PCMTD1]	2.33 ± 0.67	2.61 ± 0.34
KTSLAPYVKVFEHFLENLDKSRKG [PRIM1]	2.54 ± 0.39	3.12 ± 0.46
LKKEHPGARDGIRYLEAEFKKGNR [SMG5]	4.35 ± 0.6	4.29 ± 0.24
FRFIPVLFPNAKKEHVPTWLQNTH [TRAF3IP2]	2.3 ± 0.61	2.6 ± 0.69
IVETLCIIWFSFELVVRFFACPSK [KCNA1]	3.11 ± 0.19	3.15 ± 0.32
EKPIGSCVTNPCGPRSRCGPCNTF [KRT33B]	2.34 ± 0.24	2.52 ± 0.27
VPRTEAPAPASSTPQEPWPGPTAP [PDLIM7]	4.98 ± 0.22	5.2 ± 0.27
PLLKLACTNTYVTGLSMIANGGAI [OR4A15]	2.15 ± 0.58	2.21 ± 0.72
